Results: IntAct's records for PubMed 24469399

B1: NF-kappa-B essential modulator (Mus musculus), O88522 (parent)
chain: MNKHPWKNQLSEMVQPSGGPAEDQDMLGEESSLGKPAMLHLPSEQGTPETLQRCLEENQELRDAIRQSNQMLRERCEELLHFQVSQREEKEFLMCKFQEARKLVERLSLEKLDLRSQREQALKELEQLKKCQQQMAEDKASVKAQVTSLLGELQESQSRLEAATKDRQALEGRIRAVSEQVRQLESEREVLQQQHSVQVDQLRMQNQSVEAALRMERQAASEEKRKLAQLQAAYHQLFQDYDSHIKSSKGMQLEDLRQQLQQAEEALVAKQELIDKLKEEAEQHKIVMETVPVLKAQADIYKADFQAERHAREKLVEKKEYLQEQLEQLQREFNKLKVGCHESARIEDMRKRHVETPQPPLLPAPAHHSFHLALSNQRRSPPEEPPDFCCPKCQYQAPDMDTLQIHVMECIE

Variants of: B1
Settings: with rnf31_mouse Rnf31, Q924T7
Sequence of rnf31_mouse Rnf31, Q924T7 (Q924T7 whole entry): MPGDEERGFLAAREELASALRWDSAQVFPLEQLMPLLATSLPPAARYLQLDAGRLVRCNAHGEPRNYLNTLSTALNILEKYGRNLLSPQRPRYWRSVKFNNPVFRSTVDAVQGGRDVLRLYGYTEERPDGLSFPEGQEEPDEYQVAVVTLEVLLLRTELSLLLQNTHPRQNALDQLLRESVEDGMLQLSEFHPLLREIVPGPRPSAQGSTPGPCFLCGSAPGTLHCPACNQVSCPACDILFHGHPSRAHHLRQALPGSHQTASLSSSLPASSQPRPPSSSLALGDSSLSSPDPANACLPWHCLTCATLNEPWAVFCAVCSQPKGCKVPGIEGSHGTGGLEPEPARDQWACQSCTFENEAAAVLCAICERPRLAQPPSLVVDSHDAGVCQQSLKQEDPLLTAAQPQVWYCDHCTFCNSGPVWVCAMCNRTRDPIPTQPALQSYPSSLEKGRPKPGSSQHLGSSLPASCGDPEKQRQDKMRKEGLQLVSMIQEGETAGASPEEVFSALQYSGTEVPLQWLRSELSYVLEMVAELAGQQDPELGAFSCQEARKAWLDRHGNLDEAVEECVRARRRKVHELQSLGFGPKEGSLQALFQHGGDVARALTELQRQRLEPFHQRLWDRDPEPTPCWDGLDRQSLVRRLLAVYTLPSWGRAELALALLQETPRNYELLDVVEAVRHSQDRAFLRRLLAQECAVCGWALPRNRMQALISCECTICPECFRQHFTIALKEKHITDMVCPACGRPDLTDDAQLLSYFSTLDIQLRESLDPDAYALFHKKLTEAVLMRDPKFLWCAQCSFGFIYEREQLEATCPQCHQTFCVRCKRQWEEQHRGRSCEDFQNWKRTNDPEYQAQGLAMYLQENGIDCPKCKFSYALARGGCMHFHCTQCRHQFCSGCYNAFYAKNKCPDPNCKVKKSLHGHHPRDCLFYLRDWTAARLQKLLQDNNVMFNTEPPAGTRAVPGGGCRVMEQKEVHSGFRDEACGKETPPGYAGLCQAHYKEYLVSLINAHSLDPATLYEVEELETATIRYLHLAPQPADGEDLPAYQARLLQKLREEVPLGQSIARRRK

effect of a mutation on the interaction	Variant
disrupting interaction	D275A

Variants of: B1
Settings: with rnf31_mouse Rnf31, Q924T7
Remark: another data set of the same source

effect of a mutation on the interaction	Variant
disrupting interaction	Q271A

Variants of: B1
Settings: with rnf31_mouse Rnf31, Q924T7
Remark: another data set of the same source

effect of a mutation on the interaction	Variant
disrupting interaction	Q271A;D275A
